Article doi:10.1101/2020.07.31.231746 (2020)

Target: WT ACE2(740)-Fc (human, UniProt Q9BYF1 18-740)
Test: BLI

B1: HCoV-NL63 spike RBD (domain or fragment)
chain: QHTDINFTATASFGGSCYVCKPHQVNISLNGNTSVCVRTSHFSIRYIYNRVKSGSPGDSSWHIYLKSGTCPFSFSKLNNFQKFKTICFSTVEVPGSCNFPLEATWHYTSYTIVGALYVTWSEGNSITGVPYPVSGI
Kd: 22 nM
